Values joined by “and” are separate entries in the source; they are usually repeats but may differ in a detail not shown here. Equal entries are not always repeated.
Assays:
[1] = tested on: T cells co-cultured with monocyte derived dendritic cells (mDC); experiment: CD40L levels in T cells in mDC co-culture (FACS); format: cell-based; settings: mDC co-culture 2 days
Excerpt: In order to engage dendritic cells in an immune response, dendritic cells must be converted to a functional state by an antigen-specific CD4+ helper T cell. Activation of the dendritic cells may be followed by the activation of CD8+ T cells by the dendritic cells, a process referred to as dendritic cell licensing. Engagement of the CD40L expressed on the CD4+ cells with the CD40 on the dendritic cells can result in (i) dendritic cell stimulation-measured by expression of co-stimulatory and MHC molecules (ii) proinflammatory cytokine release (e.g. IL12, TNFα and INFγ) (iii) epitope spreading. To measure the effect of CD40L expression that is tuned by the biocircuits of the present disclosure, CD4+ T cells or Jurkat cells expressing any of the CD40L constructs described herein were co-cultured with dendritic cells.
Dendritic cell function in response to co-culture with T cells expressing CD40L was evaluated in the presence of ligand or corresponding vehicle control. Monocyte derived dendritic cells (mDC) (CD14+) were isolated from fresh blood and cultured for 5 days with IL-4 (7.5 ng/mL) and GM-CSF (20 ng/mL). The mDCs were frozen down after the 5 day culture. T cells were transduced with OT-001662 and expanded for 9 days before being frozen down. mDCs and T cells were thawed and co-cultured 1:10 DC: T cell ratio (i.e. 5×10^4 DCs: 5×10^5 T cells). mDC and T cells were co-cultured for 2 days before cells were collected for flow cytometry and supernatants were collected for cytokine analysis. For evaluation of regulated constructs, ligand (various doses of TMP) was added at the time initiating the co-culture and was kept in the co-culture for 2 days. Cytokines were analyzed by MSD after a single freeze thaw cycle. All cells were cultured in complete RPMI with 10% FBS during the course of the experiment. SR indicates stabilization ratio.

Nalm6-luc = Nalm6-luc tumor model, Bioluminescence Intensity (BLI); format: in vivo, mice; settings: CD40L only T cells, no CAR+ number
Procedure: (§1) Increased expression of CD40L on CD19 positive CART cells may increase the efficacy of CAR+ T cells in vivo. To test this, 8-week old mice were injected with Nalm6-luc (1 million per mouse). On day 6, Nalm6 tumor burden was measured and mice were grouped to ensure that all groups had similar tumor sizes. Body weight and Bioluminescence Intensity (BLI) were measured twice a week. Blood and plasma were also collected for cytokine analysis, CD40L and IL12.

hCD45+ cells = hCD45+ cells in blood by FACS 14 days after T-cell infusion; format: in vivo, mice; settings: cell number not given
Procedure: as §1
Human cells were analyzed by FACS (hCD45+) from the blood 14 days after T-cell infusion, which equals 21 days after tumor implant. The results are shown in Table 22 where M indicates million.

[2] = tested on: T cells (CD4 and CD8 positive); experiment: CD40L MFI in vitro in CD4 and CD8 positive T cells, 10 μM TMP; format: cell-based; settings: constitutive, ligand not given
Procedure: T cells were transduced with OT-001662 and then treated with 10 μM TMP on day 4. CD40L expression was analyzed by FACS both in the CD4 and CD8 positive T cell populations.

T cells = experiment: % CD40L positive cells in vivo, transduced T cells in NSG mice dosed with TMP; design: species or system NSG female mice; settings: constitutive construct
Procedure: Based on the in vitro data, regulatability of CD40L constructs in vivo was tested. 10-week old NSG female mice were injected with T cells transduced with one of the following constructs empty vector, OT-001661, and OT-001662 (day 0). On day 1, mice were pre-bled prior to dose with ligand. On day 2, mice were dosed every 4 hours with TMP at 500 mg/kg body weight of the mouse or vehicle control. Two hours after every dose, blood was collected from the mice to measure CD40L levels. On day 3, i.e. 24 hours after the first dose, mice were terminally bled for analysis. The values in bold represent the average values for each bleed.

T cells (CD4+ and CD8+) = experiment: Regulation of CD40L in T cells by different drug responsive domains; format: cell-based; settings: Ligand N/A

B1: OT-001661: constitutively expressed full length CD40L construct (protein)
chain: MHMIETYNQTSPRSAATGLPISMKIFMYLLTVFLITQMIGSALFAVYLHRRLDKIEDERNLHEDFVFMKTIQRCNTGERSLSLLNCEEIKSQFEGFVKDIMLNKEETKKENSFEMQKGDQNPQIAAHVISEASSKTTSVLQWAEKGYYTMSNNLVTLENGKQLTVKRQGLYYIYAQVTFCSNREASSQAPFIASLCLKSPGRFERILLRAANTHSSAKPCGQQSIHLGGVFELQPGASVFVNVTDPSQVSHGTGFTSFGLLKL
% CD40L+ ([1]; CD4+, DMSO): 68.1%
CD40L MFI ([1]; CD4+, DMSO): 579
% CD40L+ ([1]; CD4+, TMP): 68.3%
CD40L MFI ([1]; CD4+, TMP): 580
% CD40L+ ([1]; CD8+, DMSO): 62.2%
CD40L MFI ([1]; CD8+, DMSO): 495
% CD40L+ ([1]; CD8+, TMP): 62.3%
CD40L MFI ([1]; CD8+, TMP): 499
Average BLI values (Nalm6-luc; Day 6 (before T cell injection on day 7)): 2.04E+06
Average BLI values (Nalm6-luc; Day 13): 2.69E+08
Average BLI values (Nalm6-luc; Day 20): 2.52E+09
Average BLI values (Nalm6-luc; Day 25): 5.99E+09
Average BLI values (Nalm6-luc; Day 28): 1.04E+10
Percentage hCD45+ cells, Average (hCD45+ cells): 0.002%
Percentage hCD45+ cells, Individual values (hCD45+ cells): 0.00249% and 0.00331% and 0.00198% and 0%
CD40L MFI in vitro ([2]; CD4+): 24489
CD40L MFI in vitro ([2]; CD8+): 14352
% CD40L positive cells in vivo (T cells; 0 hours, average): 90.1%
% CD40L positive cells in vivo (T cells; 0 hours, individual values): 80.9% and 87.1% and 84.4% and 107.8%
% CD40L positive cells in vivo (T cells; 2 hours, average): 62.3%
% CD40L positive cells in vivo (T cells; 2 hours, individual values): 85.6% and 67.4% and 33.3% and 62.7%
% CD40L positive cells in vivo (T cells; 24 hours, average): 55.8%
% CD40L positive cells in vivo (T cells; 24 hours, individual values): 53.5% and 66.7% and 61.0% and 41.9%
CD40L positive (T cells (CD4+ and CD8+); All Cells): 98%
MFI (T cells (CD4+ and CD8+); All Cells): 20451
CD40L positive (T cells (CD4+ and CD8+); CD4+): 98.7%
MFI (T cells (CD4+ and CD8+); CD4+): 24489
CD40L positive (T cells (CD4+ and CD8+); CD8+): 97.8%
MFI (T cells (CD4+ and CD8+); CD8+): 14352

From patent US20220175781A1, “CD40L COMPOSITIONS AND METHODS FOR TUNABLE REGULATION” (Obsidian Therapeutics, Inc., priority 2019, published 2022)
